# Laboratory results taken from US20190233493A1 (Sanofi, published 2019).
# *1 amine or outer side, *2 acyl side, *3 side chain or, on linkers, in order; H or OH if unused. Primed or numbered codes have the meaning given here. Side-chain parts run from the residue outwards. [ ]: non-standard residue; d: D form. The star is where a group is joined. PEG28′ = polyethylene glycol spacer with 28 ethoxy units (aminoethoxy-ethoxy chain); PEG24′ = polyethylene glycol spacer of 24 ethoxy units; PEG12 = NCCOCCOCCOCCOCCOCCOCCOCCOCCOCCOCCOCCOCCC(=O)O; γGlu = O=C(O)[C@H](CCC(=O)[*:2])N[*:1]; 1Nal = N[C@@H](Cc1cccc2ccccc12)C(=O)O; Stearoyl = CCCCCCCCCCCCCCCCCC(=O)*; Palmitoyl = CCCCCCCCCCCCCCCC(=O)*; αMeK = C[C@](N)(CCCCN)C(=O)O; Nle = CCCC[C@H](N)C(=O)O; PEG2′ = PEG2 spacer unit; Aib = CC(C)(N)C(=O)O
# T1: RXFP1 receptor (UniProt Q9HBX9 1-757, limits assumed)
# T1 sequence (looked up): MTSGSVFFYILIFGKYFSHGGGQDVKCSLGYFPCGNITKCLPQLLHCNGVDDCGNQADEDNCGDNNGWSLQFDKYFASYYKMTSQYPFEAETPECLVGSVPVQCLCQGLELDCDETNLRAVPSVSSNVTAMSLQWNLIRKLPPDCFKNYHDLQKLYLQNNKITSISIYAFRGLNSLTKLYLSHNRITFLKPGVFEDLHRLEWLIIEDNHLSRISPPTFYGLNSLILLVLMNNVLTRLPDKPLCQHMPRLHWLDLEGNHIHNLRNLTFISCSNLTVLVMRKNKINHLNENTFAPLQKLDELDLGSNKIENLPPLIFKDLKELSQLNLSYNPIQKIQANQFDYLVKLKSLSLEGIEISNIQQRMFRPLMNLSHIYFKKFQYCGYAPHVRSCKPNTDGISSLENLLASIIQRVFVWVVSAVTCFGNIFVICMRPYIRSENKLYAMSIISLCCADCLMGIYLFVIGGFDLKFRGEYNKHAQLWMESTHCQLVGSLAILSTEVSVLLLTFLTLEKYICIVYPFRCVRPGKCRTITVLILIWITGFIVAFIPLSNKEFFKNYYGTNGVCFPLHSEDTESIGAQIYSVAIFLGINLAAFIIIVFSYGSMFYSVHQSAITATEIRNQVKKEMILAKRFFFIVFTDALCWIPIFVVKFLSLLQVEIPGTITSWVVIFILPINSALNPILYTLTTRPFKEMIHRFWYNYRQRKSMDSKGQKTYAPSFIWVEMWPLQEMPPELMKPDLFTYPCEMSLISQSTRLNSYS
# B1: peptide of SEQ ID NO: 38 (peptide)
# peptide: Ac-LEGREKVRAK(Ac)I[Aib][Aib]EG[Nle]STWS[Aib]RK[PEG12]K([γGlu-γGlu-γGlu-Palmitoyl])-NH2
# SMILES: CCCCCCCCCCCCCCCC(=O)N[C@@H](CCC(=O)N[C@@H](CCC(=O)N[C@@H](CCC(=O)NCCCC[C@H](NC(=O)CCOCCOCCOCCOCCOCCOCCOCCOCCOCCOCCOCCOCCNC(=O)[C@H](CCCCN)NC(=O)[C@H](CCCNC(=N)N)NC(=O)C(C)(C)NC(=O)[C@H](CO)NC(=O)[C@H](Cc1c[nH]c2ccccc12)NC(=O)[C@@H](NC(=O)[C@H](CO)NC(=O)[C@H](CCCC)NC(=O)CNC(=O)[C@H](CCC(=O)O)NC(=O)C(C)(C)NC(=O)C(C)(C)NC(=O)[C@@H](NC(=O)[C@H](CCCCNC(C)=O)NC(=O)[C@H](C)NC(=O)[C@H](CCCNC(=N)N)NC(=O)[C@@H](NC(=O)[C@H](CCCCN)NC(=O)[C@H](CCC(=O)O)NC(=O)[C@H](CCCNC(=N)N)NC(=O)CNC(=O)[C@H](CCC(=O)O)NC(=O)[C@H](CC(C)C)NC(C)=O)C(C)C)[C@@H](C)CC)[C@@H](C)O)C(N)=O)C(=O)O)C(=O)O)C(=O)O
# B2: peptide of SEQ ID NO: 42 (peptide)
# peptide: Ac-LEGREKVRAK(Ac)I[Aib][Aib]EG[Nle]STWS[αMeK]RKK(Ac)[PEG12]K([γGlu-γGlu-γGlu-γGlu-Stearoyl])-NH2
# SMILES: CCCCCCCCCCCCCCCCCC(=O)N[C@@H](CCC(=O)N[C@@H](CCC(=O)N[C@@H](CCC(=O)N[C@@H](CCC(=O)NCCCC[C@H](NC(=O)CCOCCOCCOCCOCCOCCOCCOCCOCCOCCOCCOCCOCCNC(=O)[C@H](CCCCNC(C)=O)NC(=O)[C@H](CCCCN)NC(=O)[C@H](CCCNC(=N)N)NC(=O)[C@](C)(CCCCN)NC(=O)[C@H](CO)NC(=O)[C@H](Cc1c[nH]c2ccccc12)NC(=O)[C@@H](NC(=O)[C@H](CO)NC(=O)[C@H](CCCC)NC(=O)CNC(=O)[C@H](CCC(=O)O)NC(=O)C(C)(C)NC(=O)C(C)(C)NC(=O)[C@@H](NC(=O)[C@H](CCCCNC(C)=O)NC(=O)[C@H](C)NC(=O)[C@H](CCCNC(=N)N)NC(=O)[C@@H](NC(=O)[C@H](CCCCN)NC(=O)[C@H](CCC(=O)O)NC(=O)[C@H](CCCNC(=N)N)NC(=O)CNC(=O)[C@H](CCC(=O)O)NC(=O)[C@H](CC(C)C)NC(C)=O)C(C)C)[C@@H](C)CC)[C@@H](C)O)C(N)=O)C(=O)O)C(=O)O)C(=O)O)C(=O)O
# B3: peptide of SEQ ID NO: 37 (peptide)
# peptide: Ac-LEGREKVR[Aib]K(Ac)I[Aib][Aib]EG[Nle]ST[1Nal]S[Aib]RKK(Ac)[PEG12]K([γGlu-γGlu-γGlu-Stearoyl])-NH2
# SMILES: CCCCCCCCCCCCCCCCCC(=O)N[C@@H](CCC(=O)N[C@@H](CCC(=O)N[C@@H](CCC(=O)NCCCC[C@H](NC(=O)CCOCCOCCOCCOCCOCCOCCOCCOCCOCCOCCOCCOCCNC(=O)[C@H](CCCCNC(C)=O)NC(=O)[C@H](CCCCN)NC(=O)[C@H](CCCNC(=N)N)NC(=O)C(C)(C)NC(=O)[C@H](CO)NC(=O)[C@H](Cc1cccc2ccccc12)NC(=O)[C@@H](NC(=O)[C@H](CO)NC(=O)[C@H](CCCC)NC(=O)CNC(=O)[C@H](CCC(=O)O)NC(=O)C(C)(C)NC(=O)C(C)(C)NC(=O)[C@@H](NC(=O)[C@H](CCCCNC(C)=O)NC(=O)C(C)(C)NC(=O)[C@H](CCCNC(=N)N)NC(=O)[C@@H](NC(=O)[C@H](CCCCN)NC(=O)[C@H](CCC(=O)O)NC(=O)[C@H](CCCNC(=N)N)NC(=O)CNC(=O)[C@H](CCC(=O)O)NC(=O)[C@H](CC(C)C)NC(C)=O)C(C)C)[C@@H](C)CC)[C@@H](C)O)C(N)=O)C(=O)O)C(=O)O)C(=O)O
# B4: peptide of SEQ ID NO: 46 (peptide)
# peptide: Ac-LEGREKVRAK(Ac)I[Aib][Aib]EG[Nle]STYS[Aib]RKK(Ac)[PEG12]K([γGlu-γGlu-γGlu-Stearoyl])-NH2
# SMILES: CCCCCCCCCCCCCCCCCC(=O)N[C@@H](CCC(=O)N[C@@H](CCC(=O)N[C@@H](CCC(=O)NCCCC[C@H](NC(=O)CCOCCOCCOCCOCCOCCOCCOCCOCCOCCOCCOCCOCCNC(=O)[C@H](CCCCNC(C)=O)NC(=O)[C@H](CCCCN)NC(=O)[C@H](CCCNC(=N)N)NC(=O)C(C)(C)NC(=O)[C@H](CO)NC(=O)[C@H](Cc1ccc(O)cc1)NC(=O)[C@@H](NC(=O)[C@H](CO)NC(=O)[C@H](CCCC)NC(=O)CNC(=O)[C@H](CCC(=O)O)NC(=O)C(C)(C)NC(=O)C(C)(C)NC(=O)[C@@H](NC(=O)[C@H](CCCCNC(C)=O)NC(=O)[C@H](C)NC(=O)[C@H](CCCNC(=N)N)NC(=O)[C@@H](NC(=O)[C@H](CCCCN)NC(=O)[C@H](CCC(=O)O)NC(=O)[C@H](CCCNC(=N)N)NC(=O)CNC(=O)[C@H](CCC(=O)O)NC(=O)[C@H](CC(C)C)NC(C)=O)C(C)C)[C@@H](C)CC)[C@@H](C)O)C(N)=O)C(=O)O)C(=O)O)C(=O)O
# B5: peptide of SEQ ID NO: 39 (peptide)
# peptide: Ac-LEGREKVRAK(Ac)I[Aib][Aib]EG[Nle]STWXKRKK(Ac)[PEG12]K([γGlu-γGlu-γGlu-γGlu-Stearoyl])-NH2
# modifications: not fully specified (some residues); printed as Ac-L-E-G-R-E-K-V-R-A-K(Ac)-I-Aib-Aib-E-G-Nle-S-T-W-Mse-K-R-K-K(Ac)-PEG12-K(gE-gE-gE-gE-Stea)-NH2
# B6: peptide of SEQ ID NO: 41 (peptide)
# peptide: Ac-LEGREKVRAK(Ac)I[Aib][Aib]EG[Nle]STWX[Aib]RKK(Ac)[PEG12]K([γGlu-γGlu-γGlu-Stearoyl])-NH2
# modifications: not fully specified (some residues); printed as Ac-L-E-G-R-E-K-V-R-A-K(Ac)-I-Aib-Aib-E-G-Nle-S-T-W-Mse-Aib-R-K-K(Ac)-PEG12-K(gE-gE-gE-Stea)-NH2
# B7: peptide of SEQ ID NO: 40 (peptide)
# peptide: Ac-LEGREKVRAK(Ac)I[Aib][Aib]EG[Nle]STWXXRKK(Ac)[PEG12]K([γGlu-γGlu-γGlu-γGlu-Stearoyl])-NH2
# modifications: not fully specified (some residues); printed as Ac-L-E-G-R-E-K-V-R-A-K(Ac)-I-Aib-Aib-E-G-Nle-S-T-W-Mse-Mly-R-K-K(Ac)-PEG12-K(gE-gE-gE-gE-Stea)-NH2
# B8: peptide of SEQ ID NO: 45 (peptide)
# peptide: Ac-LEGREKVRAK(Ac)I[Aib][Aib]EG[Nle]ST[1Nal]S[Aib]RK[PEG12]K([γGlu-γGlu-γGlu-Stearoyl])-NH2
# SMILES: CCCCCCCCCCCCCCCCCC(=O)N[C@@H](CCC(=O)N[C@@H](CCC(=O)N[C@@H](CCC(=O)NCCCC[C@H](NC(=O)CCOCCOCCOCCOCCOCCOCCOCCOCCOCCOCCOCCOCCNC(=O)[C@H](CCCCN)NC(=O)[C@H](CCCNC(=N)N)NC(=O)C(C)(C)NC(=O)[C@H](CO)NC(=O)[C@H](Cc1cccc2ccccc12)NC(=O)[C@@H](NC(=O)[C@H](CO)NC(=O)[C@H](CCCC)NC(=O)CNC(=O)[C@H](CCC(=O)O)NC(=O)C(C)(C)NC(=O)C(C)(C)NC(=O)[C@@H](NC(=O)[C@H](CCCCNC(C)=O)NC(=O)[C@H](C)NC(=O)[C@H](CCCNC(=N)N)NC(=O)[C@@H](NC(=O)[C@H](CCCCN)NC(=O)[C@H](CCC(=O)O)NC(=O)[C@H](CCCNC(=N)N)NC(=O)CNC(=O)[C@H](CCC(=O)O)NC(=O)[C@H](CC(C)C)NC(C)=O)C(C)C)[C@@H](C)CC)[C@@H](C)O)C(N)=O)C(=O)O)C(=O)O)C(=O)O
# Target: T1, RXFP1 receptor
# Experiment: cell-based or functional assay
Binder,"EC50 (nM), OVCAR 5 cells (cAMP) [nM]","EMax, OVCAR 5 cells (cAMP) [%]"
Ac-LEGREKVRAK(Ac)I[Aib][Aib]EGQSTYS[Aib]RKK(Ac)K([PEG2′-PEG2′-PEG2′-γGlu-γGlu-γGlu-Palmitoyl])-NH2 [peptide of SEQ ID NO: 44],16.1,75
B1,0.21,89
Ac-LEGREKVRAK(Ac)I[Aib][Aib]EG[Nle]STWS[Aib]RKK[PEG28′]K([γGlu-γGlu-γGlu-Stearoyl])-NH2 [peptide of SEQ ID NO: 48],0.25,99
B2,0.01,91
B3,2.49,83
B4,0.61,79
B5,0.03,91
Ac-LEGREKVRAQI[Aib][Aib]EGMSTWS[Aib]RK[PEG24′]K([γGlu-γGlu-γGlu-Palmitoyl])-NH2 [peptide of SEQ ID NO: 47],2.56,100
Ac-LEGREKVRAK(Ac)I[Aib][Aib]EG[Nle]STWS[αMeK]RKK(Ac)[PEG12]K([γGlu-γGlu-γGlu-γGlu-Palmitoyl])-NH2 [peptide of SEQ ID NO: 43],0.14,106
B6,0.09,87
B7,0.02,90
B8,0.81,79
